The RNAGym collection of RNA variant scans (doi:10.1073/pnas.2313332121)

B1: TPR t1 (parent)
chain: GACCAAUCUGCCCUCAGAGCUCGAGAACAUCUUCGGAUGCAGAGGAGGCAGGCUUCGGUGGCGCGAUAGCGCCAACGUCCUCAACCUCCAAUGCAUCCCACCACAUGAUGAUGCCUGAAGAGCCUUGGUUUUUUG

Variants of: B1
Experiment: polymerase ribozyme fitness, log enrichment relative to wild type (log ratio); higher = more active; in vitro selection for triplet polymerase activity
Outline: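 Mutant libraries of each subunit of a heterodimeric triplet polymerase ribozyme were built by PCR and transcribed. Each library went through one round of in vitro selection in triplicate: annealing with biotinylated primer, partner subunit and triplets, frozen incubation at −7 °C, gel excision of extended constructs, streptavidin-bead capture and RT-PCR. Input and output libraries were Illumina-sequenced; only genotypes with ≥10 input reads and ≥1 read per output were kept. Fitness is log2(genotype enrichment/wild-type enrichment), using inverse-variance-weighted replicate averages.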

Variant	polymerase ribozyme fitness (log ratio)
C98U C114U	-3.88
C99U C114A	-4.84
C99U U112C G117A G128A	-5.01
C102G U106C C114G C123A	-6.08
C104A A118U U125G U130A	-3.67
G107A C114U	-3.83
C97G A111C	-4.02
G107A U130G	-6.83
A100C U130C	-0.362
C97G G120A A121U	-3.45
G107A U112A	-5.07
C104U G127C	-1.03
C104G A119G	-6.88
C98U U126C	-1.99
A108G A111C	-1.58
C98G C115A	-5.15
G110C G120C	-4.2
G110A U116G	-3.5
A103C G113C	-5.94
A103U C114U	-4.99
C104U G128C	-1.84

Variant	polymerase ribozyme fitness (log ratio)
C99U A121U	-0.669
A103U G110C	-7.11
U109A C115G	-7.19
A100U G110A	-1.52
A100U G117U	-3.66
C97G G113C G122U	-5.4
A105C U133A	-2.08
C98A U112A	-3.24
A105U U112C	-1.65
U106C G127C	-1.07
G107U A121U U132A	-2.5
C104A C123G	-0.779
C104A C123A	-1.7
U109C C124A	-1.7
U109C A111C	-3.65
C102U C124A	-0.401
C102U C124G	0.125
A105C G110U	-3.75
A105C G110A	-5.26
C97A G120C	-4.1
C97A G120U	-4.3

Variant	polymerase ribozyme fitness (log ratio)
G110C G122C	-5.25
A108C C123A	-4.12
A100U G113U C124U	-3.92
C97U A103U	-5.3
A103U G120A C123U	-4.53
C104U C115U	-0.334
G107U C123G	-2.37
C99U A119U U130A	-3.7
C98G G135U	-6.54
C102A U112A C115A U116G C124G U133C	-3.77
G110A U125A	-2.43
C101A C115G U132C	-3.46
A108G G120A C124G U131G	-0.578
U106G U133G	-0.611
A100U U132C	-0.866
A100U U132A	-0.727
A105U G113C	-5.86
C98A A121U	-2.52
C98U A111C	-2.13
A105C G128C	-3.71
C98U A108G	-6.36

Variant	polymerase ribozyme fitness (log ratio)
U106A C115G	-3.75
U109A U116G	-5.73
U109C U130C	-5.04
C102A C124G	0.0453
C97G G120C	-4.64
U106G C124A	1.19
U106A C123A	0.524
C102A G110A	-4.38
U106G U112A G120C	-3.09
C101A C115A	-1.02
C101A C115G	-2.5
C99U G110A	-5.27
G107A G120U	-4.71
C101U C104G U109G	-6.55
U109C C115A	-3.11
U106A C114A	-1.93
C101A C115A A121C U125A	-0.732
G107A G117A	-5.11
G110A C124U	-0.567
G110A C124A	-0.401
A105C G117A	-5.32
